This note sets out measurements from patent US20190374506A1 (BETH ISREAL DEACONESS MEDICAL CENTER, published 2019).

The target of the test is T1, HA-PTEN (human, UniProt P60484 1-403).
T1 construct: Expressed in DU145 cells and immunoprecipitated with anti-PTEN antibody for mass spectrometry; also called exogenous PTEN; pcDNA3-HA-PTEN; not shown: HA tag
Description: anti-PTEN immunoprecipitation from DU145 cells transfected with HA-PTEN, SDS-PAGE, mass-spectrometric peptide sequencing of the bands (association in the precipitate). The source says:
FIG. 2A is a Western blot. Lysates from DU145 cells transfected with HA-PTEN were immunoprecipitated with an anti-PTEN antibody followed by mass-spectrometric peptide sequencing. WWP1 and NEDD4-1 were identified.
In order to identify the E3 ligases that induce PTEN atypical K27-linked poly-ubiquitination, exogenous PTEN was immunoprecipitated from DU145 cells, followed by identification of the proteins that interacted with PTEN by mass spectrometry (FIG. 2A; FIG. 18).

B1: Cytoskeleton-associated protein 4 (other)
chain: MPSAKQRGSKGGHGAASPSEKGAHPSGGADDVAKKPPPAPQQPPPPPAPHPQQHPQQHPQNQAHGKGGHRGGGGGGGKSSSSSSASAAAAAAAASSSASCSRRLGRALNFLFYLALVAAAAFSGWCVHHVLEEVQQVRRSHQDFSRQREELGQGLQGVEQKVQSLQATFGTFESILRSSQHKQDLTEKAVKQGESEVSRISEVLQKLQNEILKDLSDGIHVVKDARERDFTSLENTVEERLTELTKSINDNIAIFTEVQKRSQKEINDMKAKVASLEESEGNKQDLKALKEAVKEIQTSAKSREWDMEALRSTLQTMESDIYTEVRELVSLKQEQQAFKEAADTERLALQALTEKLLRSEESVSRLPEEIRRLEEELRQLKSDSHGPKEDGGFRHSEAFEALQQKSQGLDSRLQHVEDGVLSMQVASARQTESLESLLSKSQEHEQRLAALQGRLEGLGSSEADQDGLASTVRSLGETQLVLYGDVEELKRSVGELPSTVESLQKVQEQVHTLLSQDQAQAARLPPQDFLDRLSSLDNLKASVSQVEADLKMLRTAVDSLVAYSVKIETNENNLESAKGLLDDLRNDLDRLFVKVEKIHEKV
As to B1, the binding result was “binds”.

B2: Monofunctional C1-tetrahydrofolate synthase (enzyme)
chain: SSGGGGGGGGGREGLLGQRRPQDGQARSSCSPGGRTPAARDSIVREVIQNSKEVLSLLQEKNPAFKPVLAIIQAGDDNLMQEINQNLAEEAGLNITHICLPPDSSEAEIIDEILKINEDTRVHGLALQISENLFSNKVLNALKPEKDVDGVTDINLGKLVRGDAHECFVSPVAKAVIELLEKSGVNLDGKKILVVGAHGSLEAALQCLFQRKGSMTMSIQWKTRQLQSKLHEADIVVLGSPKPEEIPLTWIQPGTTVLNCSHDFLSGKVGCGSPRIHFGGLIEEDDVILLAAALRIQNMVSSGRRWLREQQHRRWRLHCLKLQPLSPVPSDIEISRGQTPKAVDVLAKEIGLLADEIEIYGKSKAKVRLSVLERLKDQADGKYVLVAGITPTPLGEGKSTVTIGLVQALTAHLNVNSFACLRQPSQGPTFGVKGGAAGGGYAQVIPMEEFNLHLTGDIHAITAANNLLAAAIDTRILHENTQTDKALYNRLVPLVNGVREFSEIQLARLKKLGINKTDPSTLTEEEVSKFARLDIDPSTITWQRVLDTNDRFLRKITIGQGNTEKGHYRQAQFDIAVASEIMAVLALTDSLADMKARLGRMVVASDKSGQPVTADDLGVTGALTVLMKDAIKPNLMQTLEGTPVFVHAGPFANIAHGNSSVLADKIALKLVGEEGFVVTEAGFGADIGMEKFFNIKCRASGLVPNVVVLVATVRALKMHGGGPSVTAGVPLKKEYTEENIQLVADGCCNLQKQIQITQLFGVPVVVALNVFKTDTRAEIDLVCELAKRAGAFDAVPCYHWSVGGKGSVDLARAVREAASKRSRFQFLYDVQVPIVDKIRTIAQAVYGAKDIELSPEAQAKIDRYTQQGFGNLPICMAKTHLSLSHQPDKKGVPRDFILPISDVRASIGAGFIYPLVGTMSTMPGLPTRPCFYDIDLDTETEQVKGLF
Consider B2, for which the binding result is recorded as “binds”.

B3: Isoform 2 of Putative RNA-binding protein 15 (other)
chain: MRTAGRDPVPRRSPRWRRAVPLCETSAGRRVTQLRGDDLRRPATMKGKERSPVKAKRSRGGEDSTSRGERSKKLGGSGGSNGSSSGKTDSGGGSRRSLHLDKSSSRGGSREYDTGGGSSSSRLHSYSSPSTKNSSGGGESRSSSRGGGGESRSSGAASSAPGGGDGAEYKTLKISELGSQLSDEAVEDGLFHEFKRFGDVSVKISHLSGSGSGDERVAFVNFRRPEDARAAKHARGRLVLYDRPLKIEAVYVSRRRSRSPLDKDTYPPSASVVGASVGGHRHPPGGGGGQRSLSPGGAALGYRDYRLQQLALGRLPPPPPPPLPRDLERERDYPFYERVRPAYSLEPRVGAGAGAAPFREVDEISPEDDQRANRTLFLGNLDITVTESDLRRAFDRFGVITEVDIKRPSRGQTSTYGFLKFENLDMSHRAKLAMSGKIIIRNPIKIGYGKATPTTRLWVGGLGPWVPLAALAREFDRFGTIRTIDYRKGDSWAYIQYESLDAAHAAWTHMRGFPLGGPDRRLRVDFADTEHRYQQQYLQPLPLTHYELVTDAFGHRAPDPLRGARDRTPPLLYRDRDRDLYPDSDWVPPPPPVRERSTRTAATSVPAYEPLDSLDRRRDGWSLDRDRGDRDLPSSRDQPRKRRLPEESGGRHLDRSPESDRPRKRHCAPSPDRSPELSSSRDRYNSDNDRSSRLLLERPSPIRDRRGSLEKSQGDKRDRKNSASAERDRKHRTTAPTEGKSPLKKEDRSDGSAPSTSTASSKLKSPSQKQDGGTAPVASASPKLCLAWQGMLLLKNSNFPSNMHLLQGDLQVASSLLVEGSTGGKVAQLKITQRLRLDQPKLDEVTRRIKVAGPNGYAILLAVPGSSDSRSSSSSAASDTATSTQRPLRNLVSYLKQKQAAGVISLPVGGNKDKENTGVLHAFPPCEFSQQFLDSPAKALAKSEEDYLVMIIVRGAS
Turning to B3, the binding result is given as “binds”.

B4: Isoform 2 of Structural maintenance of chromosomes protein 2 (other)
chain: MHIKSIILEGFKSYAQRTEVNGFDPLFNAITGLNGSGKSNILDSICFLLGISNLSQVRASNLQDLVYKNGQAGITKASVSITFDNSDKKQSPLGFEVHDEITVTRQVVIGGRNKYLINGVNANNTRVQDLFCSVGLNVNNPHFLIMQGRITKVLNMKPPEILSMIEEAAGTRMYEYKKIAAQKTIEKKEAKLKEIKTILEEEITPTIQKLKEERSSYLEYQKVMREIEHLSRLYIAYQFLLAEDTKVRSAEELKEMQDKVIKLQEELSENDKKIKALNHEIEELEKRKDKETGGILRSLEDALAEAQRVNTKSQSAFDLKKKNLACEESKRKELEKNMVEDSKTLAAKEKEVKKITDGLHALQEASNKDAEALAAAQQHFNAVSAGLSSNEDGAEATLAGQMMACKNDISKAQTEAKQAQMKLKHAQQELKNKQAEVKKMDSGYRKDQEALEAVKRLKEKLEAEMKKLNYEENKEESLLEKRRQLSRDIGRLKETYEALLARFPNLRFAYKDPEKNWNRNCVKGLVASLISVKDTSATTALELVAGERLYNVVVDTEVTGKKLLERGELKRRYTIIPLNKISARCIAPETLRVAQNLVGPDNVHVALSLVEYKPELQKAMEFVFGTTFVCDNMDNAKKVAFDKRIMTRTVTLGGDVFDPHGTLSGGARSQAASILTKFQELKDVQDELRIKENELRALEEELAGLKNTAEKYRQLKQQWEMKTEEADLLQTKLQQSSYHKQQEELDALKKTIEESEETLKNTKEIQRKAEEKYEVLENKMKNAEAERERELKDAQKKLDCAKTKADASSKKMKEKQQEVEAITLELEELKREHTSYKQQLEAVNEAIKSYESQIEVMAAEVAKNKESVNKAQEEVTKQKEVITAQDTVIKAKYAEVAKHKEQNNDSQLKIKELDHNISKHKREAEDGAAKVSKMLKDYDWINAERHLFGQPNSAYDFKTNNPKEAGQRLQKLQEMKEKLGRNVNMRAMNVLTEAEERYNDLMKKKRIVENDKSKILTTIEDLDQKKNQALNIAWQKVNKDFGSIFSTLLPGANAMLAPPEGQTVLDGLEFKVALGNTWKENLTELSGGQRQKQQNHTTG
Take B4: the binding result is “binds”.
